In series [1] the target is T1, protease resistant A43-FceRIa (K43 to A43 variant of recombinant human FceRIa).
T1 chain 1: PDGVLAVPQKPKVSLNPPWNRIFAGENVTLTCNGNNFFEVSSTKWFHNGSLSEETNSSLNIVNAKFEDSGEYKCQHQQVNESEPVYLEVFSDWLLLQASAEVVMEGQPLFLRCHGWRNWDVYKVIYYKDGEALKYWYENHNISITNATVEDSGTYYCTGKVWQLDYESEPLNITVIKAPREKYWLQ
T1 chain 2: HHHHHH

For series [2], the target named is T2, recombinant wild type FceRIa (extracellular region of the alpha chain of the human high-affinity IgE receptor, spacer, 6His).
T2 chain: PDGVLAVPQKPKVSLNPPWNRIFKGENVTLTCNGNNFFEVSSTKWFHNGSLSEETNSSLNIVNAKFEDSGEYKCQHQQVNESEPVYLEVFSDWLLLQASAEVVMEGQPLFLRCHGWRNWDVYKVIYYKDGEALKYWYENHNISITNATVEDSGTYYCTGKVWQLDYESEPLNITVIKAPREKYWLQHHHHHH

B1: plasmin (Sigma P1867) (protein)
chain: KVYLSECKTGNGKNYRGTMSKTKNGITCQKWSSTSPHRPRFSPATHPSEGLEENYCRNPDNDPQGPWCYTTDPEKRYDYCDILECEEECMHCSGENYDGKISKTMSGLECQAWDSQSPHAHGYIPSKFPNKNLKKNYCRNPDRELRPWCFTTDPNKRWELCDIPRCTTPPPSSGPTYQCLKGTGENYRGNVAVTVSGHTCQHWSAQTPHTHNRTPENFPCKNLDENYCRNPDGKRAPWCHTTNSQVRWEYCKIPSCDSSPVSTEQLAPTAPPELTPVVQDCYHGDGQSYRGTSSTTTTGKKCQSWSSMTPHRHQKTPENYPNAGLTMNYCRNPDADKGPWCFTTDPSVRWEYCNLKKCSGTEASVVAPPPVVLLPDVETPSEEDCMFGNGKGYRGKRATTVTGTPCQDWAAQEPHRHSIFTPETNPRAGLEKNYCRNPDGDVGGPWCYTTNPRKLYDYCDVPQCAAPSFDCGKPQVEPKKCPGRVVGGCVAHPHSWPWQVSLRTRFGMHFCGGTLISPEWVLTAAHCLEKSPRPSSYKVILGAHQEVNLEPHVQEIEVSRLFLEPTRKDIALLKLSSPAVITDKVIPACLPSPNYVVADRTECFITGWGETQGTFGAGLLKEAQLPVIENKVCNRYEFLNGRVQSTELCAGHLAGGTDSCQGDSGGPLVCFEKDKYILQGVTSWGLGCARPNKPGVYVRVSRFVTWIEGVMRNN
On to B1, for which the “plasmin cleavage, Base Peak Chromatogram (LC-MS)” value in series [1] is listed as “complete absence of a cleavage product in the mutant, protease resistant variant of recombinant A43-FceRIa (black line), whereas the wild type receptor digest peak appears at 30 min (grey line)”. The “plasmin cleavage, peptides in the Base Peak Chromatogram (LC-MS)” value in series [2] was “Site K43 (indicated as peptide K in FIG. 2B) of recombinant wt FceRIa was preferentially cleaved whereas plasmin cleavage sites K31, R40, K201, R199, K196 and K142 (indicated as peptide 1-8 in FIG. 2B) were cleaved to lesser extent”.

Values taken from patent publication US20190127438.
